Reference: PMC4005679, “In vitro assembly and activity of an archaeal CRISPR-Cas type I-A Cascade interference complex” (Nucleic Acids Research, 2014)

T1: Cas7 (Thermoproteus tenax Kra1, UniProt G4RJZ1 1-329)
T1 sequence: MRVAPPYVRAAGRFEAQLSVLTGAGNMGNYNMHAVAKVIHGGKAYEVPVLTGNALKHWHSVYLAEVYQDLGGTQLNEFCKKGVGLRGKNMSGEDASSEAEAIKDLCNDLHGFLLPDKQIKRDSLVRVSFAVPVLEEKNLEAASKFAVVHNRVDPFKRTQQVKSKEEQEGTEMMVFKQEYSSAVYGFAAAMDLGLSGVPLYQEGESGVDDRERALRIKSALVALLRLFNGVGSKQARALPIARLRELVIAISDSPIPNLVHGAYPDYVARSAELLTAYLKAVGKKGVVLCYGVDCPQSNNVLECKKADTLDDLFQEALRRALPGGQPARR

T2: Cas7 purified via a His-SUMO-tagged fusion protein (Thermoproteus tenax, UniProt G4RJZ1 1-329)
T2 construct: Cas7 of the type I-A Cascade of Thermoproteus tenax Kra1 (genome FN869859), full-length protein; also called Cas7-SUMO; monomeric Cas7; source: E. coli BL21-Gold(DE3)Star pRARE, purified (Ni-NTA, SUMO protease, HiTrap Heparin, Superdex 75)
T2 sequence (looked up): T1 sequence

T3: Cas8a2 (recombinant, refolded) (Thermoproteus tenax, UniProt G4RJZ5 1-361)
T3 construct: Cas8a2 of the type I-A Cascade of Thermoproteus tenax Kra1 (genome FN869859)
T3 sequence (looked up): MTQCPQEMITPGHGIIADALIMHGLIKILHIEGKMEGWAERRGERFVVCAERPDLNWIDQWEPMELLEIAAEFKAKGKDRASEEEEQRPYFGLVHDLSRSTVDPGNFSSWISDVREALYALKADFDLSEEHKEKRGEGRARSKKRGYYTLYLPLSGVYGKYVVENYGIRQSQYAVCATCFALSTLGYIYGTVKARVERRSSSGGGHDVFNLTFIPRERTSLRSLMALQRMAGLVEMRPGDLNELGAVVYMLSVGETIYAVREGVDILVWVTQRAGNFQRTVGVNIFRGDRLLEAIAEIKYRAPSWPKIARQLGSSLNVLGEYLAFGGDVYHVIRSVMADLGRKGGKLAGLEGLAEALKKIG

T4: Cas5a (recombinant, refolded) (Thermoproteus tenax, UniProt G4RJZ2 1-226)
T4 construct: Cas5a of the type I-A Cascade of Thermoproteus tenax Kra1 (genome FN869859)
T4 sequence (looked up): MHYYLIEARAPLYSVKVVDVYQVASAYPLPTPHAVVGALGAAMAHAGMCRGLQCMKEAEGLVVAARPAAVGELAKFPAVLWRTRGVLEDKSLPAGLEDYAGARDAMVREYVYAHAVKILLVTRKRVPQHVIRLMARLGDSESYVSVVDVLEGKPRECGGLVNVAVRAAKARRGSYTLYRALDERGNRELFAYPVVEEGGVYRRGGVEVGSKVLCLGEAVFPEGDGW

B1: Csa5 (recombinant, soluble) (natural protein, Thermoproteus tenax, UniProt G4RJZ0 1-130, looked up)
chain: MESVQLKKEELVERAARSVRPAVHLEMAYDVLDELSRSPEKYPEQLAKLSRIVVKVLNDVEDELEHNPQNEELQKARNRLAAWGGYVAELAKRLEEADDRERIRMVRLFCAMALAPDKLTVELKKLLKGR
notes: Csa5, subunit of the type I-A Cascade of Thermoproteus tenax Kra1 (genome FN869859); source: E. coli Rosetta2(DE3)pLysS, csa5 in pET24a(+), purified (heat precipitation 90°C, Hi Screen Blue FF, MonoQ)

Experiments:
Cas7 = target: T1, Cas7; test: EMSA; 4 uM Cas7, no competitor; nonspecific, similar shift with yeast RNA; 100 mM HEPES/KOH pH 7, 100 mM NaCl, 10 mM beta-mercaptoethanol, 50 ng yeast RNA, 30 min at 70 C (Cascade; 6% native TBE-PAGE); Cas7 alone without yeast RNA at 80 C, agarose gel; 2-4 nM labeled crRNA; details: protein: recombinant; tags: His-SUMO tag cleaved off; label: 5'-32P (EMSA); unlabeled in SEC; single strand
[1] = target: T2, Cas7 purified via a His-SUMO-tagged …; test: SEC; six co-refolded Cascade subunits, incubated 30 min at 65°C, Superdex 200 10/300; fractions TCA-precipitated and analysed by SDS-PAGE; details: both partners purified
[2] = target: T3, Cas8a2 (recombinant, refolded); test: as above; details: both partners purified
[3] = target: T4, Cas5a (recombinant, refolded); test: as above; details: both partners purified

Row | Binder | binding result (Cas7) | binding result [1] | binding result [2] | binding result [3]
1 | AUUGAAAGCGUUGAUGCGGCCGCGACUGGCUGACUCAGCUAUUACGUUGA (ssRNA, 5'-OH from hammerhead cleavage before labeling) [crRNA 5.2] | binds | – | – | –
2 | B1 | – | binds | binds | binds
